Measured values reported in US20150175710A1 (published 2015).

How the values were obtained:
Assay in all cases: ELISA
12D9 = biological target: 12D9
17G10 = biological target: 17G10
6B11 = biological target: 6B11

Kd (12D9): 0.39 nM | Kd (17G10): 33.9 nM | Kd (6B11): 3.04 nM
B1: mouse ENO1 (receptor)
chain: MSILRIHAREIFDSRGNPTVEVDLYTAKGLFRAAVPSGASTGIYEALELRDNDKTRFMGKGVSQAVEHINKTIAPALVSKKVNVVEQEKIDKLMIEMDGTENKSKFGANAILGVSLAVCKAGAVEKGVPLYRHIADLAGNPEVILPVPAFNVINGGSHAGNKLAMQEFMILPVGASSFREAMRIGAEVYHNLKNVIKEKYGKDATNVGDEGGFAPNILENKEALELLKTAIAKAGYTDQVVIGMDVAASEFYRSGKYDLDFKSPDDPSRYITPDQLADLYKSFVQNYPVVSIEDPFDQDDWGAWQKFTASAGIQVVGDDLTVTNPKRIAKAASEKSCNCLLLKVNQIGSVTESLQACKLAQSNGWGVMVSHRSGETEDTFIADLVVGLCTGQIKTGAPCRSERLAKYNQILRIEEELGSKAKFAGRSFRNPLAK
